± gives the standard deviation of the averaged measurements.

The labels stand for the following.
B1: library; a variant is named by its letters at N, in order (parent)
chain: GCUGUCACCGGUGCUUGGUACGUUAUAUUCAGCCGGUCUGAUGAGUCUNNNNNNAGACGAAACAGC

In the first series the parent is B1. Kind of series: normalized RNA/DNA level without ligand (relative to sTRSVctl = 100) (log10 (% of sTRSVctl)); HEK293T overexpressing SLC46A1; higher = less ribozyme self-cleavage, higher mRNA level. The conditions noted are these: without (6R,S)-folinic acid; ligand present: no. Summed up:
(§1)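 Only sequences with at least 100 DNA reads were analyzed, from HEK293T cells transfected with 4 µg per 6-well well of ribozyme switch library plasmids 72 h before RNA extraction with EDTA. Any ligand was added 1 h before transfection. RNA level was defined as RNA over DNA reads, normalized to a spiked-in non-cleaving sequence or to the top sequences, then scaled and log-transformed. The top set was 25 sequences, and the scaling was ×100 followed by log10.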
Turning to CUUUCG, the “normalized RNA/DNA level without ligand (log10)” value turned out to be 2.047 ± 0.0046.
For CUUUCU, the “normalized RNA/DNA level without ligand (log10)” value worked out at 1.998 ± 0.005.
The same measure, in the same setting: in the case of CUUUCC it was 2.02 ± 0.03.
On to CUUUCA, for which the “normalized RNA/DNA level without ligand (log10)” value is 1.992 ± 0.013.
For UUUUGC, the “normalized RNA/DNA level without ligand (log10)” value worked out at 1.959 ± 0.0097.
With UUUUGU, the “normalized RNA/DNA level without ligand (log10)” value turned out to be 1.957 ± 0.014.
In the case of CUGUCG, the “normalized RNA/DNA level without ligand (log10)” value came to 2 ± 0.031.
As to CUGUCU, the “normalized RNA/DNA level without ligand (log10)” value came to 2.037 ± 0.0082.
For the variant CUGUGU, the “normalized RNA/DNA level without ligand (log10)” value is 1.997 ± 0.017.
As to CUGUGC, the “normalized RNA/DNA level without ligand (log10)” value amounted to 2.01 ± 0.05.
The same measure, in the same setting: in the case of CUGUGA it was 2.028 ± 0.0096; in that of CUGUGG, 1.96 ± 0.0026.
For the variant UUUCGC, the “normalized RNA/DNA level without ligand (log10)” value came to 2.01 ± 0.016.
As for UUUCGG, the “normalized RNA/DNA level without ligand (log10)” value was 1.9984 ± 0.00042.
For the variant UUUCGA, the “normalized RNA/DNA level without ligand (log10)” value came out at 2.0498 ± 0.00034.
Same read-out and setting: in the case of UUUCGU it was 1.98 ± 0.017.
On to CUUGUC, for which the “normalized RNA/DNA level without ligand (log10)” value turned out to be 2.091 ± 0.018.
Turning to CUUGUA, the “normalized RNA/DNA level without ligand (log10)” value amounted to 2.027 ± 0.018.
Regarding CUUGUU, the “normalized RNA/DNA level without ligand (log10)” value is 2.02 ± 0.03.
Same read-out and setting: in the case of UUUUAU it was 2.007 ± 0.016; in that of UUUUAA, 1.973 ± 0.018; in that of CUUCUU, 2.016 ± 0.0066.
On the same count and under the same terms, under CUUCUC stands 2.05 ± 0.0097.
With CUUCUG, the “normalized RNA/DNA level without ligand (log10)” value amounted to 2.06 ± 0.021.
Still for that read-out and setting: under CUUCUA stands 2.0515 ± 0.00054; under GUUGGC, 1.914 ± 0.019.
For the variant GUUGGG, the “normalized RNA/DNA level without ligand (log10)” value stood at 1.912 ± 0.013.
The same measure, in the same setting: in the case of GUUUAU it was 1.99 ± 0.02.
Turning to GUUUAA, the “normalized RNA/DNA level without ligand (log10)” value worked out at 1.989 ± 0.0071.
On the same count and under the same terms, under GUUUAC stands 2.02 ± 0.028.

The next series covers variants of B1. As to the kind of experiment: normalized RNA/DNA level with ligand (relative to sTRSVctl = 100) (log10 (% of sTRSVctl)); HEK293T overexpressing SLC46A1; ligand concentration (+) RNA-Seq: 6 mM; higher = less ribozyme self-cleavage, higher mRNA level. The conditions noted are these: with (6R,S)-folinic acid; ligand present: yes. The gist of the method:
as §1
Consider CUUUCG, for which the “normalized RNA/DNA level with ligand (log10)” value was found to be 2.053 ± 0.0034.
The same measure, in the same setting: in the case of CUUUCU it was 1.99 ± 0.035.
Still for that read-out and setting: in the case of CUUUCC it was 2 ± 0.021; in that of CUUUCA, 2.01 ± 0.077; in that of UUUUGC, 1.93 ± 0.055.
Consider UUUUGU, for which the “normalized RNA/DNA level with ligand (log10)” value worked out at 2 ± 0.046.
Take CUGUCG: the “normalized RNA/DNA level with ligand (log10)” value was 2.06 ± 0.065.
In the case of CUGUCU, the “normalized RNA/DNA level with ligand (log10)” value came to 2.04 ± 0.034.
Same read-out and setting: in the case of CUGUGU it was 2.011 ± 0.004; in that of CUGUGC, 2.02 ± 0.028.
The same measure, in the same setting: under CUGUGA stands 2.04 ± 0.035; under CUGUGG, 2.059 ± 0.016.
On to UUUCGC, for which the “normalized RNA/DNA level with ligand (log10)” value came to 2 ± 0.011.
The same measure, in the same setting: under UUUCGG stands 1.99 ± 0.022; under UUUCGA, 2.04 ± 0.024.
The same measure, in the same setting: in the case of UUUCGU it was 2.01 ± 0.012; in that of CUUGUC, 2.06 ± 0.027; in that of CUUGUA, 2.036 ± 0.013.
On the same count and under the same terms, under CUUGUU stands 1.995 ± 0.018; under UUUUAU, 2.02 ± 0.023.
UUUUAA: the “normalized RNA/DNA level with ligand (log10)” value is 2.03 ± 0.02.
Regarding CUUCUU, the “normalized RNA/DNA level with ligand (log10)” value was 1.97 ± 0.025.
The same measure, in the same setting: under CUUCUC stands 2.02 ± 0.056; under CUUCUG, 2.026 ± 0.0091; under CUUCUA, 2.083 ± 0.015.
Still for that read-out and setting: under GUUGGC stands 2.02 ± 0.036; under GUUGGG, 2.042 ± 0.017; under GUUUAU, 1.99 ± 0.031.
In the case of GUUUAA, the “normalized RNA/DNA level with ligand (log10)” value is 1.99 ± 0.025.
Still for that read-out and setting: under GUUUAC stands 2.016 ± 0.002.

The values are drawn from the supplement of paper PMC6757056.
